Source: patent US20230272048A1 (UNIVERSITY OF MELBOURNE, published 2023)

B1: 1842 heavy chain with NC-Cow1 light chain (antibody)
VH: KVQLQESGPSLVKPSQTLSLTCTASGFSLSDKAVGWVRQAPGQALEWLGSIDTGGNADYNPGLKSRLSITKDNAKSQVSLSVSSVTTEGSATYYCSTVHQKTLRSCPSDYPYICDCEDTGSHCCRATNCPYYCNHGRDRMCTGRTYTYEWHVEAWGQGLLVTVSS
VL: HSYELTQPSSVSGSLGQRVSVTCSGSSSNVGNGYVSWYQLIPGSAPRTIIYGDTSRASGVPERFSGSRSGNTATLTISSLQAEDEADFFCASPDDSSSNAVFGSGTTLTVL
B2: 1872 heavy chain with NC-Cow1 light chain (antibody)
VH: KVQLRESGPSLVKPSQTLSLTCTASGFSLSDKAVGWVRQAPGQPLEWLGTIDTTGNAVYNPGLKSRLSITKDNSKSQVSLSLSSVTTEDSATYHCSTVHQKTRRSCPSDYSFICDCEGTGSHCCRASNCPYYCNYGRDRMCTGRSNIHEWHVDAWGQGLLVTVSS
VL: HSYELTQPSSVSGSLGQRVSVTCSGSSSNVGNGYVSWYQLIPGSAPRTIIYGDTSRASGVPERFSGSRSGNTATLTISSLQAEDEADFFCASPDDSSSNAVFGSGTTLTVL
B3: VRC01 (antibody, V domains shown)
VH: QVQLVQSGGQMKKPGESMRISCRASGYEFIDCTLNWIRLAPGKRPEWMGWLKPRGGAVNYARPLQGRVTMTRDVYSDTAFLELRSLTVDDTAVYFCTRGKNCDYNWDFEHWGRGTPVIVSS
VL: EIVLTQSPGTLSLSPGETAIISCRTSQYGSLAWYQQRPGQAPRLVIYSGSTRAAGIPDRFSGSRWGPDYNLTISNLESGDFGVYYCQQYEFFGQGTKVQVDI

molecular target: AD8 WT Env (gp160, from lysed pseudovirions / on pseudovirus) (HIV-1 AD8, clade B); test: cell-based or functional assay

In order of rising “IC50 (read off the curve); axis Neutralisation (%), panel AD8” value:
1. B1  ~5 ng/mL
2. B2  ~7 ng/mL
3. B3  ~300 ng/mL
